Reference: IntAct's records for PubMed 23890821

B1: Protein Vpu (Human immunodeficiency virus type 1 group M subtype B (isolate HXB2) (HIV-1)), P05919 (parent)
chain: MQPIPIVAIVALVVAIIIAIVVWSIVIIEYRKILRQRKIDRLIDRLIERAEDSGNESEGEISALVEMGVEMGHHAPWDVDDL

Variants of: B1
Conditions: with cd4_human CD4, P01730

| Variant | effect of a mutation on the interaction |
| --- | --- |
| I18F;V22F;V26L | decreasing interaction strength |
